The record followed here is paper PMC4980823 (Science (New York, N.Y.), 2016).

Like-named read-outs stand apart in the source and are kept apart here.

Sequences and labels used below:
B2: Rpn1 (412–625) (domain or fragment, yeast, UniProt P38764 412-625, looked up)
chain: GDGMTSAVASIGSIYQWNLDGLQQLDKYLYVDEPEVKAGALLGIGISASGVHDGEVEPALLLLQDYVTNPDTKISSAAILGLGIAFAGSKNDEVLGLLLPIAASTDLPIETAAMASLALAHVFVGTCNGDITTSIMDNFLERTAIELKTDWVRFLALALGILYMGQGEQVDDVLETISAIEHPMTSAIEVLVGSCAYTGTGDVLLIQDLLHRLT

The target of data set [1] is T1, ubiquitin (UniProt P0CG48 1-76). Kind of data set: NMR titration.
The data set “dynamic light scattering” concerns the molecule itself. Kind of data set: dynamic light scattering.
Data set [2] deals with T1, ubiquitin. The data set can be described thus: NMR titration. The source holds these as a separate data set.
The data set “Rpn1 (412–625)” addresses B2. The data set can be described thus: ITC.

B1: Rpn13 Pru domain (amino acids 1–150), no substitutions (domain or fragment, yeast, UniProt O13563 1-150, looked up)
chain: MSMSSTVIKFRAGVCEYNEDSRLCTPIPVQGEIEIKPNEEEELGFWDFEWRPTEKPVGRELDPISLILIPGETMWVPIKSSKSGRIFALVFSSNERYFFWLQEKNSGNLPLNELSAKDKEIYNKMIGVLNNSSESDEEESNDEKQKAQDV
In the case of B1, in the data set with ubiquitin [1], the binding result is listed as “binds”.

Take B2: the binding result in “dynamic light scattering” and in the data set with ubiquitin [2] was “binds” each time.

B3: Rad23 UBL domain (amino acids 1–78) (domain or fragment, yeast, UniProt P32628 1-78, looked up)
chain: MVSLTFKNFKKEKVPLDLEPSNTILETKTKLAQSISCEESQIKLIYSGKVLQDSKTVSECGLKDGDQVVFMVSQKKST
One may read the Kd as a measure of binding affinity in units of concentration. With B3, the Kd with Rpn1 (412–625) turned out to be 64 ± 25 nM.
